According to publication PMC4005694, “Archaeal aminoacyl-tRNA synthetases interact with the ribosome to recycle tRNAs” (Nucleic Acids Research, 2014):

T1: Methanothermobacter thermautotrophicus methanogenic-type seryl-tRNA synthetase (M. thermautotrophicus, UniProt O27194 1-513)
T1 construct: methanogenic-type seryl-tRNA synthetase (mSerRS) of M. thermautotrophicus; Labelled with DY-495 in the MST experiment with L12; coupled by amines to a CM5 chip in SPR; also called mSerRS; SerRS
T1 sequence (looked up): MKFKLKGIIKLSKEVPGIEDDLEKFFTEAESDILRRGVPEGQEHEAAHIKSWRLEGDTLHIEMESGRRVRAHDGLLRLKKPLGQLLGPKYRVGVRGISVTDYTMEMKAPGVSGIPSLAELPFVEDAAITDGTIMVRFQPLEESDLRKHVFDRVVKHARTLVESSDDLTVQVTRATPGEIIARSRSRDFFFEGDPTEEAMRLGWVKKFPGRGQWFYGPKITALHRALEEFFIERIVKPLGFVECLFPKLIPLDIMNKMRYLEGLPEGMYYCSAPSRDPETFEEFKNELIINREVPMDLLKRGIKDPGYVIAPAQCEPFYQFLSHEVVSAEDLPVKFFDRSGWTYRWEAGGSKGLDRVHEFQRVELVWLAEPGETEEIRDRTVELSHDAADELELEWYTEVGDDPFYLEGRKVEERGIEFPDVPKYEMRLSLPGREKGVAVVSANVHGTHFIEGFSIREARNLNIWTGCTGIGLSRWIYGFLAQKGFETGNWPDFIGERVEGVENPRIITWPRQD

T2: elongation factor EF-G of M. thermautotrophicus, found in the cross-linking experiment with 70S ribosomes (M. thermautotrophicus (endogenous in M. …, UniProt O27131 1-730))
T2 construct: EF-G of M. thermautotrophicus, Mr 81 kDa as printed; source: endogenous, in the 70S ribosome preparation from M. thermautotrophicus cells
T2 sequence (looked up): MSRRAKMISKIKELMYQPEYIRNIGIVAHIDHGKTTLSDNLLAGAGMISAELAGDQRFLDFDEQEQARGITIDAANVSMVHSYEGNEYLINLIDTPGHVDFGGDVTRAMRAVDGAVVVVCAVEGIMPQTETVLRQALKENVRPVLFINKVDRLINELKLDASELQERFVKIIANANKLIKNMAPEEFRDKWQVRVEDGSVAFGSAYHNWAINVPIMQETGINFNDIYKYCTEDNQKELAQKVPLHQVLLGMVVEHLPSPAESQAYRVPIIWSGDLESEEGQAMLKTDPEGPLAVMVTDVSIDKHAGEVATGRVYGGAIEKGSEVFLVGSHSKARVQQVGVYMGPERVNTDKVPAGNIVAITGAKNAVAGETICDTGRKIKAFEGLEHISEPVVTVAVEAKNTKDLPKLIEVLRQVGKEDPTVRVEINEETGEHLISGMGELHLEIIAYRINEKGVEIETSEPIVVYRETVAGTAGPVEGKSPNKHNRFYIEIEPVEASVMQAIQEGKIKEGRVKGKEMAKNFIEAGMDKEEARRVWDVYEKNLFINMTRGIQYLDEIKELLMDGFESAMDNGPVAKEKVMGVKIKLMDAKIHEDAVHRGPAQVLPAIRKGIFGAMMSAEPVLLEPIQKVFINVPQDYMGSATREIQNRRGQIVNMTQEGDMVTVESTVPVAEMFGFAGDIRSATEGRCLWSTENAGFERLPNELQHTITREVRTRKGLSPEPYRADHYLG

B1: ribosomal protein L3p of M. thermautotrophicus, as it stands in the ribosome (natural protein, UniProt O26110 1-337, looked up)
chain: MARHHQPRKGSVAFSPRKRAARETPRVKSWPQVDEPGLLALAGYKAGMTHVMMVDNQKNSPTEGMEVSTPVTILEVPPLTVMAVRTYEKTSRGLKTLGEVLATETKDDLRRKLTPPADDYDQEAAIEKIRSNMEYVADVRVIVHTNPRLASVPKKKPEVFECGLGGKTPEEKFEYALEILGKDVRASEIFSEGAFVDAIAVTKGKGFQGPVKRWGIRIQYGKAARSSKGRHIGSLGPWTPSRTMWTVPQAGQMGYHRRTEYNKQILKIGDASEADLVNPDGGFVRYGLVRNDYVMIKGSVPGPTKRLVVLRKAIRAAGKQEEAPQINYISTASKQGV
notes: ribosomal protein L3 of M. thermautotrophicus, Mr 37 kDa as printed; Cross-linked while part of the ribosome; source: endogenous, in 70S ribosomes purified from M. thermautotrophicus cells
B2: recombinant ribosomal protein L3 of M. thermautotrophicus (natural protein, UniProt O26110 1-337, looked up)
chain: B1 chain
notes: ribosomal protein L3 of M. thermautotrophicus; gene inserted into pGEX-6P-2 via BamHI and EcoRI; The methods say both that the GST tag was removed and that GST-tagged proteins are appropriate for SPR; source: E. coli BL21 Rosetta, purified (GST-Sepharose)
B3: recombinant ribosomal protein L12 of M. thermautotrophicus (natural protein, UniProt P05394 1-101, looked up)
chain: MEYIYAAMLLHTTGKEINEENVKSVLEAAGAEVDDARVKALIAALEDVDIEEAMETTAVAAAPAAAAAPAAAEEAEEEAEEEEEEEEAEEEAAAGLGALFG
notes: ribosomal protein L12 (P1 homologue) of M. thermautotrophicus; whole-length gene amplified from genomic DNA, cloned into pPROex-Htb via NcoI and SalI; also called P1; source: E. coli BL21 Rosetta, purified (Ni-NTA agarose)
B4: recombinant ribosomal protein L6 of M. thermautotrophicus (natural protein)
chain: not shown
notes: ribosomal protein L6 of M. thermautotrophicus; whole-length gene amplified from genomic DNA, cloned into pPROex-Htb via BamHI and SalI; source: E. coli BL21 Rosetta, purified (Ni-NTA agarose)
B5: ribosomal protein L10 (P0 homologue) of M. thermautotrophicus, as it stands in the ribosome (natural protein, UniProt O27717 1-336, looked up)
chain: MAHVAEWKKKEVQELHDLIKGYEVVGIANLADIPARQLQKMRQTLRDSALIRMSKKTLISLALEKAGRELENVDSLSDYMEGQPALIFTDMNPFKLFKILEDSKTPAPAKPGAIAPDDIVVPKGDTGFAPGPILGELQQIGIPAKIEKGKIVVSNDHVVVKAGEEIPPKVAGILTRLDIQPLEVGIDLRAAYENQTVYTADVLTIDEEKTLSDIQKAFSQAFNLSVNAVIYTRETMPAIIQKAASKSFNLAYNASILTSETTDLLLAKAYAQMLALAAAAAEINDEAVDDELKEKLSSRAAAPAPEEKEEEVEEEAEEEEEEEEEDAAAGLGALFG
notes: ribosomal protein L10 (P0 homologue) of M. thermautotrophicus, Mr 37 kDa as printed; Cross-linked while part of the ribosome; source: endogenous, in 70S ribosomes purified from M. thermautotrophicus cells
B6: recombinant ribosomal protein L10 of M. thermautotrophicus (natural protein, UniProt O27717 1-336, looked up)
chain: B5 chain
notes: ribosomal protein L10 (P0 homologue) of M. thermautotrophicus; gene inserted into pGEX-6P-2 via BamHI and SalI; The methods say both that the GST tag was removed and that GST-tagged proteins are appropriate for SPR; also called P0; source: E. coli BL21 Rosetta, purified (GST-Sepharose)
B7: Methanothermobacter thermautotrophicus arginyl-tRNA synthetase (enzyme, M. thermautotrophicus, UniProt O27496 1-560, looked up)
chain: MFRYIEKEARDSITAALEKLGIKVPPEIKLEEPPNPQLGDLASTVSFELAGKLRRAPIEITADIMSVIETPEIFETIESKGPYINFFVDYGRFSSRLLESIQDDYGSHPPRDERVILEHTSANPNGPLHIGHIRNAIIGDSLARILRMAGYDVETQYYVNDMGRQIAMIVWGLLNLDGDLEDYPGDKMDHRVGKLYFEVNQRLKENPGIRDEVDELIRKYEAGENEELFRKVVEYCLSGMEETMKRLHVHHDRFVWEGQFVRDGTVDRVIESLRKTGYTGENDVLYLDLEEFGLEKELVLTRSDGTSLYSTRDIAYHLQKSEEGDVIIDVLGSDHKLAAEQVGIAVELLGGKRPEVIFYEFITLPEGSMSTRRGVFISVDELMDEAHSRALHEVKKRRDLPDDVADDIAESIGNGAIRYYIARLSPEKHIVFRWDDALSFERGCASIQYAHARACKLLEKASFTGEEDIEDGWKPEGDERELVRLLARFPVVVEESALARRVHPVAQYAQDLANTFNSFYRSTPVIGSDFEGARLRLVDSVRKTLRNALNLLGIHAPETM
notes: arginyl-tRNA synthetase of M. thermautotrophicus; gene inserted into pPROex-Htb as a BamHI and XhoI cassette; His-tagged ArgRS is named only for the Ni-NTA SPR surface; also called ArgRS; source: E. coli BL21 Rosetta, purified (Ni-NTA agarose)

Tests used:
Conditions in all cases: both partners purified
[1] = target: B7; assay: cross-linking; 70S ribosomes incubated with mSerRS or ArgRS; EDC; quenched; complexes pelleted; SDS-PAGE and mass spectrometry
[2] = target: T1, Methanothermobacter thermautotrophicus …; assay: SPR; mSerRS amine-coupled to a CM5 chip (~800 RU), ribosomal proteins or controls as analytes; 25°C, Biacore T100, 10 µl/min; steady state affinity model
[3] = target: B7; assay: SPR; ArgRS with ribosomal proteins; Ni-NTA surface used to immobilise His-tagged ArgRS, L6 or L12; which was held for which pair is not told; 25°C, Biacore T100
[4] = target: T1, Methanothermobacter thermautotrophicus …; assay: MST; labelled mSerRS kept constant, unlabelled L12 titrated 0.528 nM-17.32 µM; Monolith NT.115
[5] = target: T2, elongation factor EF-G of M. …; assay: cross-linking; 70S ribosomes incubated with mSerRS or ArgRS; EDC; quenched; complexes pelleted; SDS-PAGE and mass spectrometry

Binder	Kd [2] [nM]	binding result [3]	other results
B1	–	–	binding result [1]: binds
B2	54	binds	–
B3	170	–	Kd [4]: 460 nM
B4	240	binds	–
B5	–	–	binding result [1]: binds
B6	39	binds	–
B7	–	–	binding result [5]: binds
